T1: activated KLK8 (human KLK8, C-terminal His tag, pro-KLK8 activated with thermolysin) (UniProt O60259 33-260)
T1 chain: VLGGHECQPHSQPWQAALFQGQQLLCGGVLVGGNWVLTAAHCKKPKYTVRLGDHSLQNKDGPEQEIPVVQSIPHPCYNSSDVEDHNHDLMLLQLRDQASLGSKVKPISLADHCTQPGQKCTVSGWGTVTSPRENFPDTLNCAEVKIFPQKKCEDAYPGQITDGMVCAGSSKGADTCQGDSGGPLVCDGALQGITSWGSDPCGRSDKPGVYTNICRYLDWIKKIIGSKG

T2: activated KLK4 (human KLK4, C-terminal His tag, pro-KLK4 activated with thermolysin) (UniProt Q9Y5K2 31-254)
T2 chain: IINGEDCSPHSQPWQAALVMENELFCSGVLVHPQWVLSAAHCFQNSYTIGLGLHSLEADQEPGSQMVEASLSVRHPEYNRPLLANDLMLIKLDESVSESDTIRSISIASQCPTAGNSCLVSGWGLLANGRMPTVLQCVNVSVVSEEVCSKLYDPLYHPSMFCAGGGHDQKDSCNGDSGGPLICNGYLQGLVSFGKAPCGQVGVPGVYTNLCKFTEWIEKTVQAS

T3: KLK4 biotinylated with EZ-Link NHS-PEG4-Biotin (UniProt Q9Y5K2 31-254, biotinylated with EZ-Link NHS-PEG4-Biotin (sites not given))
T3 chain: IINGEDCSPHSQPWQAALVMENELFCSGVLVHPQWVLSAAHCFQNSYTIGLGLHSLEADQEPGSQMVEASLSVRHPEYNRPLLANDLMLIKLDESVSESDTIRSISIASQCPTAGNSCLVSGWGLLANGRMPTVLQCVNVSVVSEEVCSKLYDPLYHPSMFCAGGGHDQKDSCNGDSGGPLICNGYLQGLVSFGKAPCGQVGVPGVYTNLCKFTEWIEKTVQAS


Columns and labels:
[1] = target: activated KLK1 (human KLK1, C-terminal His tag, pro-KLK1 activated with thermolysin) (UniProt P06870 25-262); test: peptide substrate degradation inhibition
[2] = target: T1, activated KLK8 (human KLK8, C-terminal …); test: peptide substrate degradation inhibition
[3] = target: T2, activated KLK4 (human KLK4, C-terminal …); test: peptide substrate degradation inhibition
[4] = target: T2, activated KLK4 (human KLK4, C-terminal …); test: peptide substrate degradation inhibition
[5] = target: T3, KLK4 biotinylated with EZ-Link …; test: SPR (Biacore T200)

Chain of activated KLK1 (human KLK1, C-terminal His tag, pro-KLK1 activated with thermolysin) (P06870 25-262): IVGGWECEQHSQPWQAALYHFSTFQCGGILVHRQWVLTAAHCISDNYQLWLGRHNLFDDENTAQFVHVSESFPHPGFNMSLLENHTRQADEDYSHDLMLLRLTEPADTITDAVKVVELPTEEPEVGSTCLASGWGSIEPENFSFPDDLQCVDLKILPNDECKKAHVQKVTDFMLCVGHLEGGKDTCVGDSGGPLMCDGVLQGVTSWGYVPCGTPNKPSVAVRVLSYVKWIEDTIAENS

IC50 [1]	IC50 [2]	IC50 [3]	Ki [4]	Kd [5]	Binder
20 nM	> 1000 nM	> 1000 nM			KLK1 inhibitory peptide K10071 (designed binder) GSGMKETAAAKFERQHMDSPDLGTDDDDKAMADIGSANSDPQFGLFSKYRTPNCDQNKYRDCHYYYKPVCGSDMSTYANECTLCMKIREGGHNIKIIRNGPCGASAAA
> 1000 nM	> 1000 nM	1.8 nM	0.16 nM	0.00208 nM	KLK4 inhibitory peptide K40001 (designed binder) GSGMKETAAAKFERQHMDSPDLGTDDDDKAMADIGSANSDPQFGLFSKYRTPNCRKYEYGVCQRTYLPVCGSDMSTYANECTLCMKIREGGHNIKIIRNGPCGASAAA
13 nM	> 1000 nM	> 1000 nM			KLK1 inhibitory peptide K10061 (designed binder) GSGMKETAAAKFERQHMDSPDLGTDDDDKAMADIGSANSDPQFGLFSKYRTPNCARNNIVDCFYYYKPVCGSDMSTYANECTLCMKIREGGHNIKIIRNGPCGASAAA
> 1000 nM	9.1 nM	293 nM	69.3 nM		KLK4/KLK8 inhibitory peptide K41026 (designed binder) GSGMKETAAAKFERQHMDSPDLGTDDDDKAMADIGSANSDPQFGLFSKYRTPNCQRYKMRGCNRMYDPVCGSDMSTYANECTLCMKIREGGHNIKIIRNGPCGASAAA
> 1000 nM	> 1000 nM	2.2 nM	0.21 nM		KLK4 inhibitory peptide K40005 (designed binder) GSGMKETAAAKFERQHMDSPDLGTDDDDKAMADIGSANSDPQFGLFSKYRTPNCSQQAMGACQRIYKPVCGSDMSTYANECTLCMKIREGGHNIKIIRNGPCGASAAA
> 1000 nM	31.5 nM	7.4 nM	1.38 nM		KLK4/KLK8 inhibitory peptide K41047 (designed binder) GSGMKETAAAKFERQHMDSPDLGTDDDDKAMADIGSANSDPQFGLFSKYRTPNCMRFHKDGCARIYDPVCGSDMSTYANECTLCMKIREGGHNIKIIRNGPCGASAAA
> 1000 nM	> 1000 nM	1.8 nM	0.2 nM	0.0232 nM	KLK4 inhibitory peptide K40003 (designed binder) GSGMKETAAAKFERQHMDSPDLGTDDDDKAMADIGSANSDPQFGLFSKYRTPNCELYVEDVCQRIFKPVCGSDMSTYANECTLCMKIREGGHNIKIIRNGPCGASAAA
> 1000 nM	8 nM	293 nM	74.6 nM		KLK4/KLK8 inhibitory peptide K41024 (designed binder) GSGMKETAAAKFERQHMDSPDLGTDDDDKAMADIGSANSDPQFGLFSKYRTPNCTRYVVNGCSRVYDPVCGSDMSTYANECTLCMKIREGGHNIKIIRNGPCGASAAA
> 1000 nM	7.5 nM	53 nM	10.7 nM		KLK4/KLK8 inhibitory peptide K41021 (designed binder) GSGMKETAAAKFERQHMDSPDLGTDDDDKAMADIGSANSDPQFGLFSKYRTPNCRKHTLDGCARIYDPVCGSDMSTYANECTLCMKIREGGHNIKIIRNGPCGASAAA
> 1000 nM	17 nM	86 nM	16.3 nM		KLK4/KLK8 inhibitory peptide K41025 (designed binder) GSGMKETAAAKFERQHMDSPDLGTDDDDKAMADIGSANSDPQFGLFSKYRTPNCSRYKSGGCTRIFDPVCGSDMSTYANECTLCMKIREGGHNIKIIRNGPCGASAAA
> 1000 nM	11.4 nM	2.7 nM	0.4 nM		KLK4/KLK8 inhibitory peptide K41041 (designed binder) GSGMKETAAAKFERQHMDSPDLGTDDDDKAMADIGSANSDPQFGLFSKYRTPNCQRYSQWGCTRQLDPVCGSDMSTYANECTLCMKIREGGHNIKIIRNGPCGASAAA
> 1000 nM	114 nM	2.3 nM	0.32 nM		KLK4/KLK8 inhibitory peptide K41045 (designed binder) GSGMKETAAAKFERQHMDSPDLGTDDDDKAMADIGSANSDPQFGLFSKYRTPNCRKQYWVGCNRMYAPVCGSDMSTYANECTLCMKIREGGHNIKIIRNGPCGASAAA
> 1000 nM	5.3 nM	1.9 nM	0.21 nM	0.00891 nM	KLK4/KLK8 inhibitory peptide K41043 (designed binder) GSGMKETAAAKFERQHMDSPDLGTDDDDKAMADIGSANSDPQFGLFSKYRTPNCRRYSIHGCNRMYAPVCGSDMSTYANECTLCMKIREGGHNIKIIRNGPCGASAAA
> 1000 nM	17.5 nM	15.7 nM	2.8 nM		KLK4/KLK8 inhibitory peptide K41042 (designed binder) GSGMKETAAAKFERQHMDSPDLGTDDDDKAMADIGSANSDPQFGLFSKYRTPNCSRYRREGCNRMYNPVCGSDMSTYANECTLCMKIREGGHNIKIIRNGPCGASAAA
> 1000 nM	> 1000 nM	2.1 nM	0.38 nM		KLK4 inhibitory peptide K40004 (designed binder) GSGMKETAAAKFERQHMDSPDLGTDDDDKAMADIGSANSDPQFGLFSKYRTPNCEHAQLGVCQKLYQPVCGSDMSTYANECTLCMKIREGGHNIKIIRNGPCGASAAA
> 1000 nM	283 nM	2 nM	0.31 nM		KLK4/KLK8 inhibitory peptide K41046 (designed binder) GSGMKETAAAKFERQHMDSPDLGTDDDDKAMADIGSANSDPQFGLFSKYRTPNCGRYYRGWCFKSLEPVCGSDMSTYANECTLCMKIREGGHNIKIIRNGPCGASAAA
12 nM	> 1000 nM	> 1000 nM			KLK1 inhibitory peptide K10062 (designed binder) GSGMKETAAAKFERQHMDSPDLGTDDDDKAMADIGSANSDPQFGLFSKYRTPNCDIYQVDRCWWASQPVCGSDMSTYANECTLCMKIREGGHNIKIIRNGPCGASAAA
12 nM	> 1000 nM	> 1000 nM			KLK1 inhibitory peptide K10066 (designed binder) GSGMKETAAAKFERQHMDSPDLGTDDDDKAMADIGSANSDPQFGLFSKYRTPNCSVALRDICWWTSEPVCGSDMSTYANECTLCMKIREGGHNIKIIRNGPCGASAAA
